Experimental data: paper PMC8820655 (bioRxiv, 2022)

Key:
[1] = biological target: His-tagged RBD protein of SARS-CoV-2 (SARS-CoV-2, wild type (Wuhan-Hu-1 …, UniProt P0DTC2)); assay: BLI
[2] = biological target: Fc-tagged wild-type RBD (SARS-CoV-2, UniProt P0DTC2); assay: BLI

Binder	fold change of the avidity KD, RBD loaded at 1000 ng/ml against 40 ng/ml [1] [fold]	IC50 [2] [nM]
CoV2–06 (antibody, V domains shown) VH: QVELQESGPGLVKPSGTLSLTCAVSGGSISSNNWWTWVRQPPGKGLEWIGEIHHSGGTNYNPSLKSRVTMSVDKSKNQFSLNLYSVTAADTAVYYCTRDRAGGTYSGFDFWGQGTLVTVSS VL: QAVVTQPASVSGSPGQSITISCTGTSSDVGGYNYVSWYQQHPGKAPKLMIYDVSNRPSGVSNRFSGSKSGNTASLTISGLQAEDEADYYCSSYTSSSTVVFGGGTKVTVL	46	39.8
CoV2–14 (antibody, V domains shown) VH: EVQLQQSGPGLVKPSQTLSLTCAISGDSVSSNSAAWNWIRQSPSRGLEWLGRTYYRSKWYNDYAVSVKSRITINPDTSKNQFSLQLNSVTPEDTAVYYCAREEQQLVHDYYYYGMDVWGQGTMVTVSS VL: QAVVTQPASVSGSPGQSITISCTGTSSDIGAYNYISWYQQHPGKAPKLIIYEVSNRPSGISYRFSGSKSGNTASLTISGLQAEDEANYYCSSYAGSISFGGGTKVTVL	2	10.6
